Publication PMC12667553 (2025)

Molecular target: His6-tagged YAP, purified (immobilised in BLI) (UniProt P46937 1-504)
Test: BLI

Chain of His6-tagged YAP, purified (immobilised in BLI) (P46937 whole entry): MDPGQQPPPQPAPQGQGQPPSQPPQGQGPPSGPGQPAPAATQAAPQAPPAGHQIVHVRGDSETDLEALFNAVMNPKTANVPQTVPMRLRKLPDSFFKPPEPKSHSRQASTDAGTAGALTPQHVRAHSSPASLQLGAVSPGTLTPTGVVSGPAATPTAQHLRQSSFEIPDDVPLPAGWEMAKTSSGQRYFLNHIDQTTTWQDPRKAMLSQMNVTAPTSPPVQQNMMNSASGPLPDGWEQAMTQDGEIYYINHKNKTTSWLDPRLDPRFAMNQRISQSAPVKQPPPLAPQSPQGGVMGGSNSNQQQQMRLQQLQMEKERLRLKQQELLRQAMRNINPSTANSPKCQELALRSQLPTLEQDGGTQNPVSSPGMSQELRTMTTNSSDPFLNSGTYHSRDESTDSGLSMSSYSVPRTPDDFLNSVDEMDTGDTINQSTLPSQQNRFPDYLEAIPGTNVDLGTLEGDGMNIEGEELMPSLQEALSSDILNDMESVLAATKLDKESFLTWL

B1: recombinant TWF2, purified (BLI analyte) (natural protein)
chain: MAHQTGIHATEELKEFFAKARAGSVRLIKVVIEDEQLVLGASQEPVGRWDQDYDRAVLPLLDAQQPCYLLYRLDSQNAQGFEWLFLAWSPDNSPVRLKMLYAATRATVKKEFGGGHIKDELFGTVKDDLSFAGYQKHLSSCAAPAPLTSAERELQQIRINEVKTEISVESKHQTLQGLAFPLQPEAQRALQQLKQKMVNYIQMKLDLERETIELVHTEPTDVAQLPSRVPRDAARYHFFLYKHTHEGDPLESVVFIYSMPGYKCSIKERMLYSSCKSRLLDSVEQDFHLEIAKKIEIGDGAELTAEFLYDEVHPKQHAFKQAFAKPKGPGGKRGHKRLIRGPGENGDDS
Work on B1 yielded a Kd of 7.9 µM.
